The labels stand for the following.
B1: 1E2F12H8_3D2 (antibody, V domains shown)
VH: EVQLLESGGGLVQPGGSLRLSCAASGFTFSSYAMSWVRQAPGKGLEWVSIISGSGGDTYYADSVKGRFTISRDNSKNTLYLQMNSLRAEDTAVYYCAKTDDHGDFFDYWGQGTLVTVSS
VL: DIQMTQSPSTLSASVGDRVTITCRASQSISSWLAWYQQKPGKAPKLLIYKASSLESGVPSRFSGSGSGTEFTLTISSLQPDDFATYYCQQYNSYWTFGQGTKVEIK
B2: 3C4A3_7C5 (antibody, V domains shown)
VH: EVQLLESGGGLVQPGGSLRLSCAASGFTFSSYAMSWVRQAPGKGLEWVSVISGSGGSTYYADSVKGRFTISRDNSKNTLDLQMNSLRAEDTAVYYCAKLGDYYYGMDVWGQGTTVTVSS
VL: not shown
B3: 1E12H10_7A1 (antibody, V domains shown)
VH: QVQLVESGGGVVQPGRSLRLSCATSGFTFSSYGMHWVRQAPGKGLEWVALIWFDGGNQYYADSVKGRFTISRDNSKNTLYLQLNSLRAEDTAVYFCARDVISMVRGVPFDYWGQGTLVTVSS
VL: DAVVTQESALTTSPGETVTLTCRSSTGAVTTGNYANWVQEKPDHLFTGLIGGIKNRVPGVPARFSGSLIGDRAALTITGAQTEDEAIYFCALWYSNHWVFGGGTKLTVLG
B4: 16B10_27D2 (antibody, V domains shown)
VH: QVQLVESGGGVVQPGRSLRLSCAASGFTFNNYGMHWVRQAPGKGLEWVAIIWNDGSNPYYADSVKGRFTISRDNSKNTLYLQMNSLRAEDTAVYYCVRDSSSWFVNYFDYWGQGTLVTVSS
VL: EIVMTQSPATLSVSPGERATLSCRASQSVNRNLAWYQQKPGQAPRLLIYGASTRATGIPASFSGSGSGTEFTLTISSLQSEDFAVYYCQHYNHWPLTFGGGTKVEIK
notes: Recombinant antibody from CHO cells
B5: 8E11B6 (antibody, V domains shown)
VH: QVQLEESGGGVVQPGRSLRLSCAASGFTFSSYGMHWVRQAPGKGLEWVAVIWYDGSNTYYADSVKGRFTISRDNSKNTLYLQMNSLRAEDTAVYYCARERETFFYVMDAWGQGASVTVSS
VL: DIQMTQSPSTLSASVGDRVTITCRASQSISSWLAWYQQKPGKAPKLLIYKASSLESGVPSRFSGSGSGTEFTLTISSLQPDDFAIYYCQQFNRFITFGQGTRLEIK
B6: 17E8_27C5 (antibody, V domains shown)
VH: B3 VH with T24A, S31N, V48M, L50G, G56T, Q58K, A61I, L83M, S85N, F95Y
VL: B3 VL with G32S, K54N, V57A, R72K
notes: as for B4
B7: 11H10_27D4 (antibody, V domains shown)
VH: B3 VH with T24A, S31N, M34I, L50V, G56N, Q58K, L83M, F95Y, S102T, M103L
VL: B3 VL with L20V, G32S, K54N, V57A, R72K
notes: as for B4
B8: 17F4_27C6 (antibody, V domains shown)
VH: B3 VH with T24A, S31T, M34I, L50V, G56S, Q58K, L83M, F95Y
VL: B3 VL with G32S, K54N, R72K, L106V
notes: as for B4
B9: 20H6_24C3 (antibody, V domains shown)
VH: QVQLQESGPGLLKPSETLSLTCTVSGGSISPYYWSWIRQPPGKGLEWIGYIYYSGNTNYNPSLQSRLTISVDTSKNQFSLKLSSVTAADTAVYYCARRGYSFGFYYGLDVWGQGTTVTVSS
VL: DIQMTQSPSSLSASVGDRVTITCRASQDISIYLAWYQQKPGKVPNLLIYLASTLQSGVPSRFSGSGSGTDFTLTISSLQPEDVATYYCQKYNSAPWTFGQGTKLEIK
notes: as for B4
B10: 10A5_24A2 (antibody, V domains shown)
VH: QLQLQESGPGLVNPSKTLSLTCNVSGGSMSNYFWSWIRQPPGKGLEWIGYIYNSGNTNYHPSLQSRVTISVDTSKNLFSLKLTSVTAADTAVYYCARRGGYYGSGNYGGLDVWGHGTTVTVSS
VL: B9 VL with D28G, I31N, N45K, L50A, S65T, N92D, L104V
notes: as for B4
B11: 6H9_27D5 (antibody, V domains shown)
VH: QVELQQSGPGLVKPSETLSLTCTVSGGSISTYFWSWTRQPPGKGLEWIGYTNYRGNTNYNPSLESRVTISVDTSKNQFSLKLSSVTAADTAVYYCARRGGYYGSGNYGGMDVWGQGTTVTVSS
VL: B9 VL with D28G, I31N, N45K, L50A, V83L, N92D
notes: as for B4
B12: 8C7_24B1 (antibody, V domains shown)
VH: QVQLQESGPGLVKPSETLSLTCTVSGGSISSYYWSWIRQPPGKGLEWIGYIHYSGSTNYNPSLKSRVTISEDTSKNQFSLKLSSVTAADTAVFYCAGRRYYYDSSGYLDYWGQGTLVTVSS
VL: B9 VL with D28G, I31N, N45K, L50A
notes: as for B4
B13: 7C12_24A6 (antibody, V domains shown)
VH: QVQLQESGPGLVNPSKTLSLTCTVSGGSISSYFWSWIRQPPGKGLEWIGYIYDSGSTNYNPSLKSRVTISVDTSKNHFSLKLSSVTAADTAVYYCARRGGYYGSGSYGGMDVWGQGTTVTVSS
VL: B9 VL with D28G, I31N, N45K, Y49S, L50A
notes: as for B4
B14: 5E3-24B4 (antibody, V domains shown)
VH: B12 VH with Y32H, S35N, S56G, L63Q, E71V, F93Y, Y102F
VL: B9 VL with D28G, I31N, V43I, N45K, L50A
notes: as for B4
B15: 5A2_24A1 (antibody, V domains shown)
VH: B13 VH with S31R
VL: B9 VL with D28G, I31N, V43I, N45K, Y49S, L50A, N92D, L104V
notes: as for B4
B16: 14E7_27C1 (antibody, V domains shown)
VH: B9 VH with L12V, P31S, N56S, Q64K, F102Y, F104Y, L108M
VL: B9 VL with I31N, N45K, Y49S, L50P
notes: as for B4
B17: 4F4_27D3 (antibody, V domains shown)
VH: B12 VH with Y32H, H52Y, S54N, S56G, N60K, E71V, S83T, F93Y
VL: B9 VL with D28G, I31N, N45K, L50A
notes: as for B4
B18: 3H3_24B2 (antibody, V domains shown)
VH: B13 VH with V2I, S30R, S56N, S106N
VL: B9 VL with D28G, I31N, N45K, L50A
notes: as for B4
B19: 3D8D11 (antibody, V domains shown)
VH: B13 VH with N13K, K16E, D53Y, H77Q, Y102S, G103Y, S104G, G105Y, S106G, G108Y
VL: B9 VL with D28G, I31N, N45K, L50A
notes: as for B4
B20: 1C4_24B3 (antibody, V domains shown)
VH: B13 VH with S7A, D53N, K64Q, T73M, S106N
VL: B9 VL with V15A, D28G, I31N, N45K, I48M, L50A, T53A, N92D, L104V
notes: Recombinant antibody from CHO cells; also called 1C4_24B4

Numbering of substitutions follows the chain as printed.

One assay has as its target T1, cynomolgus ILT3 expressed on HEK293 cells (Macaca fascicularis (cynomolgus monkey)).
T1 construct: whole, on cells; also called Macaca fascicularis ILT3 homologue; macaque ILT3 homologue
The experiment in a line: flow cytometry, serial antibody dilutions on live HEK293 cells expressing cynomolgus ILT3, Alexa Fluor 647 anti-human IgG secondary, MFI. Background: In flow cytometry, cells or beads pass a laser one at a time.
Protocol: (§1) Affinity: The affinity of antibodies to recombinant ILT3 was determined on an Octet Red™ (Pall, ForteBio) instrument. After loading reagents into a 96-well plate, the Octet Red™ with Protein A-conjugated biosensors was programmed as follows: 30 seconds for baseline #1; 45 seconds to immobilize the antibody; 30 seconds for baseline #2; 300 seconds for association of antibody to recombinant ILT3; and 300 seconds for dissociation of recombinant ILT3 from the antibody. In some cases, the antibody affinity was estimated against cynomolgus ILT3 using a flow based method. Briefly, the assay uses 3-5 fold dilutions from 100 nM to 0.1 nM of a stock antibody concentration (100 nM) diluted in flow buffer. […] Acquisition of the MFI (Median Fluorescent Intensity) was performed on a MACSQuant® Flow Cytometers (Miltenyi Biotec).
On to B1, for which the EC50 (read off the curve) (commonly the concentration giving half of the maximal effect) is approximately 6 nM.

The target of another assay is T2, recombinant cynomolgus monkey ILT3 ectodomain with C-terminal histidine tag (cynomolgus monkey).
T2 construct: extracellular domain; Non-native signal peptide; expressed in CHO cells
The experiment in a line: BLI (Octet Red), antibody on Protein A biosensors, recombinant ILT3 in solution. In general terms: In BLI a coated tip is dipped into the sample, and binding shifts an interference pattern.
Protocol: as §1
B2: the Kd (as a rule, the constant that tells how readily two partners part at equilibrium) is 56 nM.

For B3, the Kd was 200 nM.

Take B1: the Kd stood at 27 nM.

For the next assay, the target named is T3, recombinant human ILT3 ectodomain with C-terminal histidine tag (human, UniProt Q8NHJ6 22-259).
T3 construct: also called recombinant ILT3; hILT3; not shown: C-terminal histidine tag
T3 sequence (Q8NHJ6 22-259 D223G): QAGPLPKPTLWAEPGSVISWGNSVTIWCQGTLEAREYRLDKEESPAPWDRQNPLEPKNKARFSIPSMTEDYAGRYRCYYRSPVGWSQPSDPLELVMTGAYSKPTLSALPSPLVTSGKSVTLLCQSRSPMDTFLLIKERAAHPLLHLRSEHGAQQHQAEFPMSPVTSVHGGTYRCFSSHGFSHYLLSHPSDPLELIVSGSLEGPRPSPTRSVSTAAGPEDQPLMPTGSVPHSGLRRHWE
The assay is described as above.
On to B4, for which the Kd was 1 nM.

For B2, the Kd was found to be 21 nM.

Consider B5, for which the Kd worked out at 10 nM.

Consider B3, for which the Kd is 3 nM.

Consider B6, for which the Kd amounted to 2 nM.

Take B7: the Kd worked out at 1 nM.

On to B8, for which the Kd amounted to 3 nM.

Take B1: the Kd amounted to 6 nM.

B9: the Kd stood at 1 nM.

On to B10, for which the Kd came out at 2 nM.

In the case of B11, the Kd came to 1 nM.

As to B12, the Kd stood at 60 nM.

B13: the Kd is 50 nM.

With B14, the Kd turned out to be 2 nM.

Turning to B15, the Kd was found to be 30 nM.

As to B16, the Kd came to 75 nM.

Take B17: the dissociation constant Kd amounted to 30 nM.

Take B18: the Kd was determined as 40 nM.

In the case of B19, the Kd is 170 nM.

Take B20: the Kd turned out to be 12 nM.

These data come from US20220227863A1 (BLUEFIN BIOMEDICINE, published 2022).
